{"source": "patent US20170056486A1", "about": "(IMMATICS BIOTECHNOLOGIES, published 2017)"}
{"molecular_target": "T1, HLA-A*02 (human)", "T1 construct": "Peptide-receptive MHC monomer made by UV cleavage of a UV-sensitive ligand and captured on streptavidin plates; also called HLA-A*02 MHC class I molecule; peptide-receptive MHC", "test": "UV-exchange ELISA (anti-b2m); yield 50%-75%", "text": "Candidate peptides for T cell based therapies according to the present invention were further tested for their MHC binding capacity (affinity). The individual peptide-MHC complexes were produced by UV-ligand exchange, where a UV-sensitive peptide is cleaved upon UV-irradiation, and exchanged with the peptide of interest as analyzed. Only peptide candidates that can effectively bind and stabilize the peptide-receptive MHC molecules prevent dissociation of the MHC complexes. To determine the yield of the exchange reaction, an ELISA was performed based on the detection of the light chain (β2m) of stabilized MHC complexes. The assay was performed as generally described in Rodenko et al. (Rodenko et al., 2006).\n96 well MAXISorp plates (NUNC) were coated over night with 2 ug/ml streptavidin in PBS at room temperature, washed 4× and blocked for 1 h at 37° C. in 2% BSA containing blocking buffer. […] Peptide-MHC monomers of the UV-exchange reaction were diluted 100 fold in blocking buffer. Samples were incubated for 1 h at 37° C., washed four times, incubated with 2 ug/ml HRP conjugated anti-β2m for 1 h at 37° C., washed again and detected with TMB solution that is stopped with […]. Absorption was measured at 450 nm.", "units": {"peptide exchange yield": "%"}}
{"binder": "SLFGQEVYC", "peptide exchange yield": "50 to 75"}
{"binder": "GLYQAQVNL", "peptide exchange yield": "50 to 75"}
{"binder": "LLWGHPRVA", "peptide exchange yield": "50 to 75"}
{"binder": "IVLSTIASV", "peptide exchange yield": "50 to 75"}
{"binder": "KLDGICWQV", "peptide exchange yield": "50 to 75"}
{"binder": "SLFNQEVQI", "peptide exchange yield": "50 to 75"}
{"binder": "ILADEAFFSV", "peptide exchange yield": "50 to 75"}
{"binder": "KVFGDLDQV", "peptide exchange yield": "50 to 75"}
{"binder": "YVLNEEDLQKV", "peptide exchange yield": "50 to 75"}
{"binder": "FINPKGNWLL", "peptide exchange yield": "50 to 75"}
{"binder": "LLLDGDFTL", "peptide exchange yield": "50 to 75"}
{"binder": "SLLSHVIVA", "peptide exchange yield": "50 to 75"}
{"binder": "VLRDNIQGI", "peptide exchange yield": "50 to 75"}
{"binder": "YLTEVFLHVV", "peptide exchange yield": "50 to 75"}
{"binder": "ELLEYLPQL", "peptide exchange yield": "50 to 75"}
{"binder": "GLITVDIAL", "peptide exchange yield": "50 to 75"}
{"binder": "LLDESKLTL", "peptide exchange yield": "50 to 75"}
{"binder": "ELAEIVFKV", "peptide exchange yield": "50 to 75"}
{"binder": "ILLNTEDLASL", "peptide exchange yield": "50 to 75"}
{"binder": "TLLPTVLTL", "peptide exchange yield": "50 to 75"}
{"binder": "KMQEDLVTL", "peptide exchange yield": "50 to 75"}
{"binder": "ELLSSIFFL", "peptide exchange yield": "50 to 75"}
{"binder": "GIYDGILHSI", "peptide exchange yield": "50 to 75"}
{"binder": "ALMAVVSGL", "peptide exchange yield": "50 to 75"}
{"binder": "ALINDILGELVKL", "peptide exchange yield": "50 to 75"}
{"binder": "GLFSQHFNL (also called DNMT3B-001)", "peptide exchange yield": "50 to 75"}
{"binder": "FLEEEITRV", "peptide exchange yield": "50 to 75"}
{"binder": "ILLDESNFNHFL", "peptide exchange yield": "50 to 75"}
{"binder": "SLAKHGIVAL", "peptide exchange yield": "50 to 75"}
{"binder": "ILHEHHIFL", "peptide exchange yield": "50 to 75"}
{"binder": "KLGPFLLNA", "peptide exchange yield": "50 to 75"}
{"binder": "ILDNVKNLL", "peptide exchange yield": "50 to 75"}
{"binder": "LLWAGPVTA", "peptide exchange yield": "50 to 75"}
{"binder": "YLVAHNLLL", "peptide exchange yield": "50 to 75"}
{"binder": "FITDFYTTV", "peptide exchange yield": "50 to 75"}
{"binder": "GMIGFQVLL", "peptide exchange yield": "50 to 75"}
{"binder": "SLLTQPIFL", "peptide exchange yield": "50 to 75"}
{"binder": "TLLGKQVTL", "peptide exchange yield": "50 to 75"}
{"binder": "VLGPTPELV", "peptide exchange yield": "50 to 75"}
{"binder": "KVDGVVIQL", "peptide exchange yield": "50 to 75"}
{"binder": "LLLPLLPPLSPSLG", "peptide exchange yield": "50 to 75"}
{"binder": "FVLPLVVTL", "peptide exchange yield": "50 to 75"}
{"binder": "ALTKILAEL", "peptide exchange yield": "50 to 75"}
{"binder": "ALYGKLLKL", "peptide exchange yield": "50 to 75"}
{"binder": "TLDEYLTYL", "peptide exchange yield": "50 to 75"}
{"binder": "FLDPAQRDL", "peptide exchange yield": "50 to 75"}
{"binder": "TLYSMDLMKV", "peptide exchange yield": "50 to 75"}
{"binder": "AAAAKVPEV", "peptide exchange yield": "50 to 75"}
{"binder": "ALDGHLYAI", "peptide exchange yield": "50 to 75"}
{"binder": "VLSPFILTL", "peptide exchange yield": "50 to 75"}
{"binder": "FLWNGEDSAL", "peptide exchange yield": "50 to 75"}
{"binder": "TLCNKTFTA", "peptide exchange yield": "50 to 75"}
{"binder": "SLLALPQDLQA", "peptide exchange yield": "50 to 75"}
{"binder": "STLDGSLHAV", "peptide exchange yield": "50 to 75"}
